Test system: Escherichia coli TOP10
Test: shrunken log2 fold change of peptide-encoding DNA abundance (4.5 h post-induction vs induction); higher = less antimicrobial activity (less host growth inhibition)
Settings: time post-induction: 4.5 h; library: site-saturation at positions 5, 18, 19, 20
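Further: peptides expressed intracellularly from a pBAD plasmid library in pooled LB shake-flask culture, induced with 0.3% L-arabinose, DNA abundance read by NGS, three biological replicates, DESeq2 with apeglm shrinkage.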

Sequence | shrunken log2 fold change
RRIRFRPPRLPRPRPRPTWDPRP | 0.0928
RRIRFRPPRLPRPRPRPEYHPRP | -0.202
RRIRERPPRLPRPRPRPILHPRP | -0.0255
RRIRSRPPRLPRPRPRPGPWPRP | -0.0683
RRIRDRPPRLPRPRPRPENVPRP | 0.218
RRIRTRPPRLPRPRPRPQVVPRP | -0.0349
RRIRLRPPRLPRPRPRPNETPRP | -0.0172
RRIRNRPPRLPRPRPRPSCPPRP | -0.4
RRIRMRPPRLPRPRPRPMMCPRP | -0.0746
RRIRERPPRLPRPRPRPGFHPRP | -0.277
RRIRYRPPRLPRPRPRPCFQPRP | -0.267
RRIRTRPPRLPRPRPRPQDFPRP | -0.29
RRIRYRPPRLPRPRPRPSVWPRP | 0.0896
RRIRRRPPRLPRPRPRPRDNPRP | 0.15
RRIRDRPPRLPRPRPRPEPWPRP | 0.32
RRIRHRPPRLPRPRPRPASAPRP | 0.0183
RRIRARPPRLPRPRPRPHLGPRP | 0.0806
RRIRYRPPRLPRPRPRPGNWPRP | -0.163
RRIRDRPPRLPRPRPRPVIRPRP | -0.19
RRIRPRPPRLPRPRPRPNWRPRP | 0.392
RRIRMRPPRLPRPRPRPVNLPRP | -0.0198
RRIRMRPPRLPRPRPRPTPMPRP | 0.981
RRIRTRPPRLPRPRPRPSVEPRP | 0.0926
RRIRERPPRLPRPRPRPDFQPRP | -0.37
RRIRRRPPRLPRPRPRPKPKPRP | 0.273

Sequence | shrunken log2 fold change
RRIRRRPPRLPRPRPRPFDVPRP | -0.0126
RRIRQRPPRLPRPRPRPHCIPRP | 0.0493
RRIRKRPPRLPRPRPRPFYDPRP | 0.0223
RRIRCRPPRLPRPRPRPRHRPRP | -0.466
RRIRYRPPRLPRPRPRPFRVPRP | -0.0371
RRIRNRPPRLPRPRPRPSPAPRP | 0.0876
RRIRIRPPRLPRPRPRPYLQPRP | -0.00195
RRIRARPPRLPRPRPRPNDQPRP | 0.226
RRIRFRPPRLPRPRPRPDMNPRP | -0.407
RRIRFRPPRLPRPRPRPMRKPRP | 0.222
RRIRMRPPRLPRPRPRPVVPPRP | -0.107
RRIRDRPPRLPRPRPRPWYYPRP | 0.0606
RRIRERPPRLPRPRPRPIGFPRP | -0.134
RRIRDRPPRLPRPRPRPWHPPRP | -0.0206
RRIRQRPPRLPRPRPRPKDVPRP | 0.00879
RRIRERPPRLPRPRPRPWSPPRP | -0.0132
RRIRQRPPRLPRPRPRPPRTPRP | 0.669
RRIRNRPPRLPRPRPRPVHFPRP | 0.0937
RRIRQRPPRLPRPRPRPAMAPRP | -0.134
RRIRMRPPRLPRPRPRPMQSPRP | 0.886
RRIRGRPPRLPRPRPRPKFLPRP | 0.267
RRIRKRPPRLPRPRPRPGMFPRP | -0.126
RRIRGRPPRLPRPRPRPQIIPRP | 0.203
RRIRLRPPRLPRPRPRPCTEPRP | -0.0105
RRIRFRPPRLPRPRPRPYFWPRP | -0.241

Sequence | shrunken log2 fold change
RRIRNRPPRLPRPRPRPKDLPRP | -0.0125
RRIRTRPPRLPRPRPRPYSQPRP | -0.0274
RRIRIRPPRLPRPRPRPAWEPRP | -0.143
RRIRNRPPRLPRPRPRPWGWPRP | 0.242
RRIRKRPPRLPRPRPRPVNLPRP | -0.0889
RRIRWRPPRLPRPRPRPDDAPRP | 0.368
RRIRMRPPRLPRPRPRPKSPPRP | 0.325
RRIRPRPPRLPRPRPRPQVHPRP | -0.0018
RRIRHRPPRLPRPRPRPSGHPRP | -0.172
RRIRRRPPRLPRPRPRPNMSPRP | 2.14
RRIRMRPPRLPRPRPRPCIFPRP | 0.0107
RRIRMRPPRLPRPRPRPVRQPRP | 0.332
RRIRVRPPRLPRPRPRPWCIPRP | -0.165
RRIRDRPPRLPRPRPRPPEGPRP | 0.76
RRIRQRPPRLPRPRPRPHGIPRP | 0.179
RRIRCRPPRLPRPRPRPDQQPRP | 0.0369
RRIRMRPPRLPRPRPRPYERPRP | -0.0671
RRIRDRPPRLPRPRPRPNTSPRP | -0.284
RRIRLRPPRLPRPRPRPIVYPRP | -0.43
RRIRQRPPRLPRPRPRPNSCPRP | 0.0314
RRIRVRPPRLPRPRPRPLQDPRP | -0.104
RRIRKRPPRLPRPRPRPNKLPRP | -0.0293
RRIRFRPPRLPRPRPRPHLWPRP | 0.185
RRIRPRPPRLPRPRPRPKGLPRP | 0.062
RRIRWRPPRLPRPRPRPKWGPRP | 0.463

Sequence | shrunken log2 fold change
RRIRGRPPRLPRPRPRPNAWPRP | 0.728
RRIRGRPPRLPRPRPRPWRDPRP | 0.0475
RRIRKRPPRLPRPRPRPKWPPRP | -0.031
RRIRKRPPRLPRPRPRPIRVPRP | -0.0018
RRIRCRPPRLPRPRPRPIMYPRP | -0.916
RRIRERPPRLPRPRPRPPGEPRP | 0.439
RRIRNRPPRLPRPRPRPAIKPRP | -0.383
RRIRPRPPRLPRPRPRPKMGPRP | -0.0348
RRIRERPPRLPRPRPRPVSMPRP | -0.295
RRIRRRPPRLPRPRPRPPWLPRP | 0.634
RRIRARPPRLPRPRPRPDECPRP | -0.0409
RRIRYRPPRLPRPRPRPLHSPRP | -0.803
RRIRNRPPRLPRPRPRPLVYPRP | -0.943
RRIRARPPRLPRPRPRPNVRPRP | 0.0345
RRIRERPPRLPRPRPRPPLMPRP | 0.0142
RRIRKRPPRLPRPRPRPPRGPRP | 1.13
RRIRVRPPRLPRPRPRPEQEPRP | -0.0189
RRIRMRPPRLPRPRPRPIPGPRP | 0.105
RRIRQRPPRLPRPRPRPLTEPRP | -0.22
RRIRARPPRLPRPRPRPFTQPRP | -0.0692
RRIRHRPPRLPRPRPRPPRGPRP | 0.564
RRIRPRPPRLPRPRPRPESIPRP | -0.0804
RRIRCRPPRLPRPRPRPHTIPRP | -0.38
RRIRCRPPRLPRPRPRPCCLPRP | -0.35
RRIRPRPPRLPRPRPRPMKCPRP | -0.00631

Sequence | shrunken log2 fold change
RRIRWRPPRLPRPRPRPRVYPRP | -0.401
RRIRQRPPRLPRPRPRPDFKPRP | -0.229
RRIRERPPRLPRPRPRPPHYPRP | -0.159
RRIRLRPPRLPRPRPRPGWCPRP | 0.191
RRIRIRPPRLPRPRPRPWIVPRP | -0.157
RRIRGRPPRLPRPRPRPTTTPRP | 1.07
RRIRWRPPRLPRPRPRPILLPRP | -0.0849
RRIRMRPPRLPRPRPRPKLCPRP | 0.438
RRIRERPPRLPRPRPRPYWEPRP | -0.219
RRIRARPPRLPRPRPRPGSYPRP | 0.14
RRIRTRPPRLPRPRPRPNQRPRP | 0.181
RRIRARPPRLPRPRPRPRYSPRP | -0.121
RRIRMRPPRLPRPRPRPFSHPRP | 0.0882
RRIRPRPPRLPRPRPRPLMVPRP | -0.0973
RRIRARPPRLPRPRPRPFASPRP | 0.0388
RRIRVRPPRLPRPRPRPMLRPRP | -0.102
RRIRGRPPRLPRPRPRPVCFPRP | 0.997
RRIRIRPPRLPRPRPRPAVSPRP | -0.0873
RRIRARPPRLPRPRPRPVEYPRP | 0.0729
RRIRKRPPRLPRPRPRPVLAPRP | 0.605
RRIRVRPPRLPRPRPRPRNIPRP | -0.0258
RRIRWRPPRLPRPRPRPEPRPRP | 0.886
RRIRARPPRLPRPRPRPILVPRP | -0.122
RRIRERPPRLPRPRPRPALMPRP | 0.129
RRIRWRPPRLPRPRPRPLWNPRP | 0.169

From the supplement of paper PMC9112550, “Optimization of the antimicrobial peptide Bac7 by deep mutational scanning” (BMC Biology, 2022)
